In data set [1] the target is PP7-PP7 single-chain coat protein dimer particle (PP7 virus (Leviviridae)) (UniProt P03630). The experiment in a line: cryo-EM structure.
Data set [2] deals with PP7-ZZ particle (ZZ-domains fused to the C-terminus of the PP7 CP) (PP7 virus (Leviviridae)). The experiment in a line: SEC + other: dynamic light scattering + other: TEM.
In data set [3] the target is ZZ-PP7 particle (ZZ-domains added to the N-terminus of the PP7 CP) (PP7 virus (Leviviridae)). The experiment in a line: cryo-EM structure.
Data set [4] concerns the molecule itself. As to the kind of experiment: SEC + other: dynamic light scattering + other: TEM.

For “PP7-PP7 single-chain coat protein dimer particle (from UniProt P03630 1-128; P03630 1-128)”, in data set [1], the stoichiometry N was 120 copies.

For the molecule “PP7-ZZ particle (ZZ-domains fused to the C-terminus of the PP7 CP)”, the stoichiometry N in data set [2] is 180 per capsid.

With “ZZ-PP7 particle (ZZ-domains added to the N-terminus of the PP7 CP)”, the stoichiometry N in data set [3] worked out at 180 per capsid.

B1: wild-type PP7 virus-like particle (PP7 coat protein) (natural protein)
chain: MSKTIVLSVGEATRTLTEIQSTADRQIFEEKVGPLVGRLRLTASLRQNGAKTAYRVNLKLDQADVVDCSTSVCGELPKVRYTQVWSHDVTIVANSTEASRKSLYDLTKSLVATSQVEDLVVNLVPLGR
Regarding B1, the binding result in data set [4] is “binds”.

The values above are taken from PMC6991139 (ACS nano, 2019).
